Assays:
[1] = target: T1, recombinant histidine-tagged human E-selectin (Sino Biologicals; 13025-H08H) (human, UniProt P16581 22-556); experiment: competition ELISA on soluble E-selectin vs sialyl Lewis A, further assays
T1 construct: also called recombinant human E-selectin; soluble recombinant human E-selectin
T1 sequence (looked up): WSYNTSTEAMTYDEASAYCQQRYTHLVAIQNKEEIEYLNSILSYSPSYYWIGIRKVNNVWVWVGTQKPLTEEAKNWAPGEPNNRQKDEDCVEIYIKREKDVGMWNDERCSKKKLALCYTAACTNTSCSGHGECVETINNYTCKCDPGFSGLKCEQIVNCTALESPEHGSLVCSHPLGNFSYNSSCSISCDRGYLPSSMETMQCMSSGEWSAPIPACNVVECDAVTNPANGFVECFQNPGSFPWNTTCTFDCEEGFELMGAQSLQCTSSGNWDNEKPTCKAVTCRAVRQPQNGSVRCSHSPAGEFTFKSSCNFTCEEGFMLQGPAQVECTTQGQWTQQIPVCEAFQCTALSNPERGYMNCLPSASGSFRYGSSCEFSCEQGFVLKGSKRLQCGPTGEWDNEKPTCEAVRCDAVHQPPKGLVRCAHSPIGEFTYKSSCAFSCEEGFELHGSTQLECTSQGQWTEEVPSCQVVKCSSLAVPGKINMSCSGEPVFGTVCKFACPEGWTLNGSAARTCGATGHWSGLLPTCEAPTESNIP
Description: (§1) Recombinant histidine-tagged E-selectin; cynomolgus monkey E-selectin (Sino Biologicals; 190169-C08H) and human E-selectin (Sino Biologicals; 13025-H08H) stock solutions were prepared to a final concentration of 3 μg/mL in phosphate buffered saline (PBS) without calcium and magnesium. One hundred μL per well of the diluted recombinant E-selectin protein was added into a Ni-NTA HisSorb 96 well plate (Qiagen, 35061) and plates were incubated on an orbital shaker at room temperature for 2 hours. Sialyl Lewis A polyacrylamide biotin, a synthetic E-selectin ligand (GlycoTech corporation 01-044), was conjugated to streptavidin HRP (horse radish peroxidase) (Ultra Streptavidin HRP, Thermo Scientific N504) and diluted in assay diluent containing 2 mM calcium chloride (BD OptEIA buffer; BD Biosciences, 555213).
(§2) Following the incubation, the plates were washed 5 times with 200 μL of wash buffer containing 2 mM of calcium chloride (50 mM TRIS [trisaminomethane]; 150 mM sodium chloride, 0.05% polysorbate 20, pH 7.4; 2 mM of calcium chloride). […] The final antibody concentration ranged from 200 nM to 0.09 nM and the final concentration of HRP conjugated Sialyl Lewis A was 5 μg/mL. […] Reactions were stopped with 100 μl of 2M sulfuric acid and absorbance read at 450 nm (Spectramax M5e). Data were analyzed and graphed using GraphPad Prism software (Version 8.0.2).

[2] = target: T2, recombinant histidine-tagged cynomolgus monkey E-selectin (Sino Biologicals; 190169-C08H) (cynomolgus monkey, UniProt A0A2K5U7H9 22-554); experiment: as above
T2 construct: also called recombinant cynomolgus monkey E-selectin
T2 sequence: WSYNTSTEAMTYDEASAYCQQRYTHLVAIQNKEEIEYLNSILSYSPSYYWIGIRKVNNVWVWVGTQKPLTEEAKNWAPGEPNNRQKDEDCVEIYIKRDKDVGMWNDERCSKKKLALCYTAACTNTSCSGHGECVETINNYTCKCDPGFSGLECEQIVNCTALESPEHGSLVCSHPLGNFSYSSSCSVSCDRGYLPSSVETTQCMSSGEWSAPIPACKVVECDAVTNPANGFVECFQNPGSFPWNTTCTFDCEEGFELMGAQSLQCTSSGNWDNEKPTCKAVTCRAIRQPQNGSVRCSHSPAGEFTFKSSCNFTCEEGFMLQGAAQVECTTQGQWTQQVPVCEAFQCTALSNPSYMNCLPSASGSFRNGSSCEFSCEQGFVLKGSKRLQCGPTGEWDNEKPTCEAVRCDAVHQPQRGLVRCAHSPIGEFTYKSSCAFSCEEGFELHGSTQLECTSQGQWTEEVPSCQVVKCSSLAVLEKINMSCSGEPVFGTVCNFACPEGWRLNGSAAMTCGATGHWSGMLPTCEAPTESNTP
Description: as §1, §2

[3] = target: T1, recombinant histidine-tagged human …; experiment: direct binding ELISA, soluble recombinant protein
Description: (§3) Recombinant histidine tagged human P-, E- or L-selectin (Sino Biologicals), mouse E-selectin (Sino Biologicals), rat E-selectin (Sino Biologicals) and Cynomolgus monkey E-selectin (Sino Biologicals) stock solutions were prepared to a final concentration of 1 μg/mL in phosphate buffered saline without calcium and magnesium. Controls included an L-selectin directed antibody (BioLegend; 304811) or P-selectin directed antibody or a negative control IgG. One hundred μL per well of the diluted recombinant selectin proteins were added into a Ni-NTA HisSorb 96 well plate (Qiagen; 35061). Plates were incubated on an orbital shaker at room temperature for 2 hours. Following the incubation, the plates were washed 3 times with 200 μL of wash buffer (50 mM TRIS [trisaminomethane]; 150 mM sodium chloride; 0.05% polysorbate 20, pH 7.4). […] Anti L-selectin and anti-rat-E-selectin antibodies were detected using 1 to 25000 dilution of Peroxidase-conjugated AffiniPure Goat Anti-Mouse IgG (H+L); (Jackson ImnnunoResearch Lab).
(§4) Plates were washed and 100 μL per well of 1-Step Ultra TMB substrate (Thermo Scientific) was added and incubated for 5 minutes at room temperature. Reactions were stopped with 100 μL of 2 M sulfuric acid and absorbance read at 450 nm (Spectramax M5e).

[4] = target: T2, recombinant histidine-tagged cynomolgus …; experiment: direct binding ELISA, soluble recombinant protein
Description: as §3, §4

[5] = target: T2, recombinant histidine-tagged cynomolgus …; experiment: direct binding ELISA, further assay
Description: as §3, §4

B1: optimized anti-E-selectin antibody 1444 (antibody, human IgG1, kappa, V domains shown)
VH: EVQLVESGGGLVQPGGSLRLSCAASGYAIRSAYMHWVRQAPGKGLEWVARIDPANGNTIYVDSVTGRFTISADNAKNSAYLQMNSLRAEDTAVYYCAMDLYSTSEYWGQGTLVTVSS
VL: DIQMTQSPSSLSASVGDRVTITCKTSQNIERYLNWYQQKPGKAPKLLIYAASSLQSGVPSRFSGSGSGTDFTLTISSLQPEDFATYFCLQDNAWPLTFGQGTKVEIKR
notes: effector-null human IgG1, kappa
IC50 [1]: 2.91 nM
IC50 [2]: 2.45 nM
EC50 [3]: 0.085 to 0.12 nM
EC50 [4]: 0.071 to 0.093 nM
EC50 [5]: 0.071 to 0.075 nM
